# Experimental data as given in patent US20100111943.
# B1: PCAF (protein)
# chain: MSEAGGAGPGGCGAGAGAGAGPGALPPQPAALPPAPPQGSPCAAAAGGSGACGPATAVAAAGTAEGPGGGGSARIAVKKAQLRSAPRAKKLEKLGVYSACKAEESCKCNGWKNPNPSPTPPRADLQQIIVSLTESCRSCSHALAAHVSHLENVSEEEMNRLLGIVLDVEYLFTCVHKEEDADTKQVYFYLFKLLRKSILQRGKPVVEGSLEKKPPFEKPSIEQGVNNFVQYKFSHLPAKERQTIVELAKMFLNRINYWHLEAPSQRRLRSPNDDISGYKENYTRWLCYCNVPQFCDSLPRYETTQVFGRTLLRSVFTVMRRQLLEQARQEKDKLPLEKRTLILTHFPKFLSMLEEEVYSQNSPIWDQDFLSASSRTSQLGIQTVINPPPVAGTISYNSTSSSLEQPNAGSSSPACKASSGLEANPGEKRKMTDSHVLEEAKKPRVMGDIPMELINEVMSTITDPAAMLGPETNFLSAHSARDEAARLEERRGVIEFHVVGNSLNQKPNKKILMWLVGLQNVFSHQLPRMPKEYITRLVFDPKHKTLALIKDGRVIGGICFRMFPSQGFTEIVFCAVTSNEQVKGYGTHLMNHLKEYHIKHDILNFLTYADEYAIGYFKKQGFSKEIKIPKTKYVGYIKDYEGATLMGCELNPRIPYTEFSVIIKKQKEIIKKLIERKQAQIRKVYPGLSCFKDGVRQIPIESIPGIRETGWKPSGKEKSKEPRDPDQLYSTLKSILQQVKSHQSAWPFMEPVKRTEAPGYYEVIRFPMDLKTMSERLKNRYYVSKKLFMADLQRVFTNCKEYNPPESEYYKCANILEKFFFSKIKEAGLIDK
# B2: p300 protein (upstate) (protein)
# chain: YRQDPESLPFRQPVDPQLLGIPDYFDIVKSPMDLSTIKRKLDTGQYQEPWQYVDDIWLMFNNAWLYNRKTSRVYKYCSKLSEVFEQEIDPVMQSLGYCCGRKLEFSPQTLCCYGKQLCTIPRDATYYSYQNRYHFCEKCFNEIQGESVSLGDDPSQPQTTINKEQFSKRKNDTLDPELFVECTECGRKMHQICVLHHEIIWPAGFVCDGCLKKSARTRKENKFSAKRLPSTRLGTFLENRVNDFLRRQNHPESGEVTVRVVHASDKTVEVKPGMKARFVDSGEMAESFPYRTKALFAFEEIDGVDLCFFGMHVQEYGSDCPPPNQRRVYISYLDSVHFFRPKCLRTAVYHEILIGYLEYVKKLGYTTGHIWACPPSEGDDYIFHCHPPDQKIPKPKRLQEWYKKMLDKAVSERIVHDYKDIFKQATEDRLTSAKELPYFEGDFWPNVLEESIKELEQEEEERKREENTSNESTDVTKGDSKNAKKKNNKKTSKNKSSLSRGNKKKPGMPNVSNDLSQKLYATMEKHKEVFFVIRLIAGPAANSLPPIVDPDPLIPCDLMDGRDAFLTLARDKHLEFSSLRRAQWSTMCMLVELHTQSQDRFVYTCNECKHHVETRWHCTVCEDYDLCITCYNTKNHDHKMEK
# Molecular target: FLAG (F)-tagged hsp90α (wild type), P07900
protein,measurement,value
B1,"in vitro acetylation of hsp90α, Western analysis with anti-AcK antibody",This was not seen with PCAF
B2,"in vitro acetylation of hsp90α, Western analysis with anti-AcK antibody",Co-incubation with p300 was discovered to dose-dependently stimulate the acetylation of hsp90α
